Patent US20180016327A1 (Chugai, published 2018)
Positions count from the first letter of the chain named.

B1: CFP0015 15L 53S (antibody, V domains shown)
VH: QVQLLESGGGLVQPGGSLRLSCAASGFTFSSYAMSWVRQAPGKGLEWVSAISGSGGSTYYADSVKGRFTISRDNSKNTLYLQMNSLRAEDTAVYYCARGDQIWYDQWYYFDMWGQGTLVTVSS
VL: DIQMTQSPSSLSASVGDRVTITCRASQSIEDDLAWYQQKPGKAPKLLIYEASSLQSGVPSRFSGSGSGTDFTLTISSLQPEDFATYYCQQYDSSPLTFGQGTKVEIK
B2: CFP0011 (antibody, V domains shown)
VH: QVQLVQSGAEVKKPGSSVKVSCKASGGTFSSYAISWVRQAPGQGLEWMGGIIPIFGTANYAQKFQGRVTITADESTSTAYMELSSLRSEDTAVYYCARDMSEFLGWSNYYSYPMDVWGQGTTVTVSS
VL: B1 VL with E50H, Y91S, S93N, L96Y
notes: IgG format
B3: CFP0015 15L 96Y (antibody, V domains shown)
VH: B1 VH
VL: B1 VL with S53N, L96Y
B4: CFP0015 15L 96F (antibody, V domains shown)
VH: B1 VH
VL: B1 VL with S53N, L96F
B5: CFP0011 11L 30H (antibody, V domains shown)
VH: B2 VH
VL: B1 VL with E30H, E50H, Y91S, S93N, L96Y
B6: CFP0011 11L 34N (antibody, V domains shown)
VH: B2 VH
VL: B1 VL with A34N, E50H, Y91S, S93N, L96Y
B7: CFP0011 11L 32N (antibody, V domains shown)
VH: B2 VH
VL: B1 VL with D32N, E50H, Y91S, S93N, L96Y
B8: CFP0015 15L 93R (antibody, V domains shown)
VH: B1 VH
VL: B1 VL with S53N, S93R
B9: CFP0011 11L 30S (antibody, V domains shown)
VH: B2 VH
VL: B1 VL with E30S, E50H, Y91S, S93N, L96Y
B10: CFP0015 15L 92Q (antibody, V domains shown)
VH: B1 VH
VL: B1 VL with S53N, D92Q
B11: CFP0015 15L 94F (antibody, V domains shown)
VH: B1 VH
VL: B1 VL with S53N, S94F
B12: CFP0011 11L 50A (antibody, V domains shown)
VH: B2 VH
VL: B1 VL with E50A, Y91S, S93N, L96Y
B13: CFP0015 15L 94T (antibody, V domains shown)
VH: B1 VH
VL: B1 VL with S53N, S94T
B14: CFP0015 15L 93D (antibody, V domains shown)
VH: B1 VH
VL: B1 VL with S53N, S93D
B15: CFP0015 15L 92T (antibody, V domains shown)
VH: B1 VH
VL: B1 VL with S53N, D92T
B16: CFP0015 15L 91H (antibody, V domains shown)
VH: B1 VH
VL: B1 VL with S53N, Y91H
B17: CFP0011 11L 31H (antibody, V domains shown)
VH: B2 VH
VL: B1 VL with D31H, E50H, Y91S, S93N, L96Y
B18: CFP0011 11L 32Q (antibody, V domains shown)
VH: B2 VH
VL: B1 VL with D32Q, E50H, Y91S, S93N, L96Y
B19: CFP0015 15L 93N (antibody, V domains shown)
VH: B1 VH
VL: B1 VL with S53N, S93N
B20: CFP0015 15L 91D (antibody, V domains shown)
VH: B1 VH
VL: B1 VL with S53N, Y91D
B21: CFP0011 11L 31A (antibody, V domains shown)
VH: B2 VH
VL: B1 VL with D31A, E50H, Y91S, S93N, L96Y
B22: CFP0015 15L 91S (antibody, V domains shown)
VH: B1 VH
VL: B1 VL with S53N, Y91S
B23: CFP0015 15L 92S (antibody, V domains shown)
VH: B1 VH
VL: B1 VL with S53N, D92S
B24: CFP0015 15L 94Y (antibody, V domains shown)
VH: B1 VH
VL: B1 VL with S53N, S94Y
B25: CFP0015 15L 92E (antibody, V domains shown)
VH: B1 VH
VL: B1 VL with S53N, D92E
B26: CFP0015 15L 93G (antibody, V domains shown)
VH: B1 VH
VL: B1 VL with S53N, S93G
B27: CFP0011 11L 50E (antibody, V domains shown)
VH: B2 VH
VL: B1 VL with Y91S, S93N, L96Y
B28: CFP0011 11L 50D (antibody, V domains shown)
VH: B2 VH
VL: B1 VL with E50D, Y91S, S93N, L96Y
B29: CFP0015 15L 94W (antibody, V domains shown)
VH: B1 VH
VL: B1 VL with S53N, S94W
B30: CFP0015 15L 91T (antibody, V domains shown)
VH: B1 VH
VL: B1 VL with S53N, Y91T
B31: CFP0011 11L 31N (antibody, V domains shown)
VH: B2 VH
VL: B1 VL with D31N, E50H, Y91S, S93N, L96Y
B32: CFP0011 11L 30D (antibody, V domains shown)
VH: B2 VH
VL: B1 VL with E30D, E50H, Y91S, S93N, L96Y
B33: CFP0015 15L 91E (antibody, V domains shown)
VH: B1 VH
VL: B1 VL with S53N, Y91E
B34: CFP0015 15L 92P (antibody, V domains shown)
VH: B1 VH
VL: B1 VL with S53N, D92P
B35: CFP0015 15L 53T (antibody, V domains shown)
VH: B1 VH
VL: B1 VL with S53T
B36: CFP0015 15L 91R (antibody, V domains shown)
VH: B1 VH
VL: B1 VL with S53N, Y91R
B37: CFP0015 15L 96I (antibody, V domains shown)
VH: B1 VH
VL: B1 VL with S53N, L96I
B38: CFP0011 11L 30A (antibody, V domains shown)
VH: B2 VH
VL: B1 VL with E30A, E50H, Y91S, S93N, L96Y
B39: CFP0015 15L 91Q (antibody, V domains shown)
VH: B1 VH
VL: B1 VL with S53N, Y91Q
B40: CFP0011 11L 53H (antibody, V domains shown)
VH: B2 VH
VL: B1 VL with E50H, S53H, Y91S, S93N, L96Y
B41: CFP0015 15L 96P (antibody, V domains shown)
VH: B1 VH
VL: B1 VL with S53N, L96P
B42: CFP0015 15L 96H (antibody, V domains shown)
VH: B1 VH
VL: B1 VL with S53N, L96H
B43: CFP0015 15L 96W (antibody, V domains shown)
VH: B1 VH
VL: B1 VL with S53N, L96W

molecular target: T1, human C5 (human, UniProt P01031 19-673; P01031 678-1676, Beta and alpha chains are disulfide-linked and the protein is glycosylated.); experiment: Biacore, captured antibody, pH 7.4, 37 C;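 note: biacore binding response of anti-C5 antibody light chain variants captured on chip with human C5 injected, ACES running buffer containing 1.2 mM CaCl₂, parent light chain antibody set to 100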
T1 construct: Either in-house recombinant C5 or plasma derived C5 (CALBIOCHEM) was used; also called recombinant human C5; plasma derived human C5

| Binder | % binding (parent = 100) |
| --- | --- |
| B1 | 73.6% |
| B2 | 100% |
| B3 | 7.5% |
| B4 | 11.8% |
| B5 | 13.6% |
| B6 | 29.2% |
| B7 | 3.6% |
| B8 | 96% |
| B9 | 44.5% |
| B10 | 59.7% |
| B11 | 10.6% |
| B12 | 95.2% |
| B13 | 53.1% |
| B14 | 45.1% |
| B15 | 74.1% |
| B16 | 81.5% |
| B17 | 100% |
| B18 | 18.4% |
| B19 | 80.4% |
| B20 | 20.4% |
| B21 | 112% |
| B22 | 27.3% |

| Binder | % binding (parent = 100) |
| --- | --- |
| B23 | 51.3% |
| B24 | 46.1% |
| B25 | 99.8% |
| B26 | 78.6% |
| B27 | 75.6% |
| B28 | 58.2% |
| B29 | 4.5% |
| B30 | 50.7% |
| B31 | 125% |
| B32 | 71.4% |
| B33 | 30.1% |
| B34 | 21.7% |
| B35 | 75.8% |
| B36 | 2.4% |
| B37 | 103% |
| B38 | 100% |
| B39 | 96.4% |
| B40 | 115% |
| B41 | 49% |
| B42 | 50.7% |
| B43 | 3.6% |
